Data from patent US20260152571A1.

Assays:
[1] = molecular target: PIGQ/HLA complex on PIGQ-pulsed T2 cells (human); assay: flow cytometry, T2 cells pulsed with 25 µM PIGQ peptide, antibody 10 µg/mL
[2] = molecular target: WT1RMF/HLA-A2 complex on cells (human); assay: flow cytometry, T2 cells pulsed with 25 µM WT1RMF, antibody 10 µg/mL
[3] = molecular target: HLA-A2 on T2 cells without added peptide (human); assay: flow cytometry, T2 cells without peptide, antibody 10 µg/mL
[4] = molecular target: MED13L/HLA complex on MED13L-pulsed T2 cells (human); assay: flow cytometry, T2 cells pulsed with 25 µM MED13L peptide, antibody 10 µg/mL

ISO (antibody)
Percentage of Positive Cells (%) [1]: 4.78% | Percentage of Positive Cells (%) [2]: 4.93% | Percentage of Positive Cells (%) [3]: 5.43% | Percentage of Positive Cells (%) [4]: 5.38%
